In patent publication US20250073311A1, “DOSAGE REGIME” (ZEALAND PHARMA A/S, priority 2021, published 2025):
Numbered stars: 1 amine (or outer) side, 2 acyl side, 3 side chain; on linkers, the order of the positions; unused ones are H or OH. Square brackets hold non-standard residues; d marks the D form. Side chains are listed from the residue outwards. * marks the point of attachment. C20 diacid = O=C(O)CCCCCCCCCCCCCCCCCCC(=O)*; C18 diacid = O=C(O)CCCCCCCCCCCCCCCCC(=O)*; γGlu = O=C(O)[C@H](CCC(=O)[*:2])N[*:1]; KEK = Lys-Glu-Lys peptide sequence; AEEA = NCCOCCOCC(=O)O; Aib = CC(C)(N)C(=O)O

T1: human GLP-2 receptor (hGLP2-R) (human, UniProt O95838)
T1 sequence: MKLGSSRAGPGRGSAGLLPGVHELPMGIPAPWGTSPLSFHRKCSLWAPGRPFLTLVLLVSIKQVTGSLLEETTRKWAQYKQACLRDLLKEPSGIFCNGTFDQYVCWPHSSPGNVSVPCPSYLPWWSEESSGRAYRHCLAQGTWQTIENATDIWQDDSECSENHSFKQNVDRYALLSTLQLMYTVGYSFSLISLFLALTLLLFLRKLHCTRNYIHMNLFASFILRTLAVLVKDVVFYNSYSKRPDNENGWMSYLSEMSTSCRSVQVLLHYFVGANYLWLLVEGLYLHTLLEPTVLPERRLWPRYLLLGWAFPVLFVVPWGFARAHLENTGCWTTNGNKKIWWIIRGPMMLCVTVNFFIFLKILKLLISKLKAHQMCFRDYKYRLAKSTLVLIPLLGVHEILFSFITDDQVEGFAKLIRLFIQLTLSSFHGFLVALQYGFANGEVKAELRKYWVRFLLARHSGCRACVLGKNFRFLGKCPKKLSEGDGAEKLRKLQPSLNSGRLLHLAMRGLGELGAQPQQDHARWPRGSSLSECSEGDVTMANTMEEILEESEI


Legend:
[1] = molecular target: human glucagon-like peptide 1 receptor (GLP-1R) (human, UniProt P43220); experiment: cell-based or functional assay
[2] = molecular target: T1, human GLP-2 receptor (hGLP2-R); experiment: cell-based or functional assay

Binder | EC50 GLP-1 (nM), cAMP AlphaScreen [1] | EC50 GLP-2 (nM), cAMP AlphaScreen [2]
H-H[Aib]EGSFTSELATILDAK([AEEA-KEK-γGlu-C20 diacid])AARDFIAWLIEHKITD-OH [Compound 62] | 0.27 nM | 0.15 nM
H-H[Aib]EGTFTSELATILDK([KEK-γGlu-C20 diacid])QAARDFIAWLIQHKITD-OH [Compound 51] | 0.02 nM | 0.18 nM
H-H[Aib]EGSFTSELATILDEQAAK([AEEA-KEK-γGlu-C20 diacid])DFIAWLIEHKITD-OH [Compound 64] | 0.49 nM | 0.2 nM
H-H[Aib]EGTFSSELATILDK([AEEA-KEK-γGlu-C18 diacid])QAARDFIAWLIQHKITD-OH [Compound 47] | 0.44 nM | 0.048 nM
H-H[Aib]EGTFTSEK([AEEA-KEK-γGlu-C20 diacid])ATILDEQAARDFIAWLIEHKITD-OH [Compound 54] | 0.034 nM | 0.99 nM
H-H[Aib]EGSFTSELATILDK([AEEA-AEEA-KEK-γGlu-C20 diacid])QAARDFIAWLIEHKITD-OH [Compound 60] | 0.097 nM | 0.074 nM
H-H[Aib]EGSFTSELATILDK([AEEA-KEK-γGlu-C20 diacid])QAARDFIAWLIAHKITD-OH [Compound 58] | 0.089 nM | 0.09 nM
H-H[Aib]EGSFTSELATILDK([γGlu-C18 diacid])EAARDFIAWLIEHKITD-OH (SMILES CC[C@H](C)[C@H](NC(=O)[C@H](Cc1ccccc1)NC(=O)[C@H](CC(=O)O)NC(=O)[C@H](CCCNC(=N)N)NC(=O)[C@H](C)NC(=O)[C@H](C)NC(=O)[C@H](CCC(=O)O)NC(=O)[C@H](CCCCNC(=O)CC[C@H](NC(=O)CCCCCCCCCCCCCCCCC(=O)O)C(=O)O)NC(=O)[C@H](CC(=O)O)NC(=O)[C@H](CC(C)C)NC(=O)[C@@H](NC(=O)[C@@H](NC(=O)[C@H](C)NC(=O)[C@H](CC(C)C)NC(=O)[C@H](CCC(=O)O)NC(=O)[C@H](CO)NC(=O)[C@@H](NC(=O)[C@H](Cc1ccccc1)NC(=O)[C@H](CO)NC(=O)CNC(=O)[C@H](CCC(=O)O)NC(=O)C(C)(C)NC(=O)[C@@H](N)Cc1c[nH]cn1)[C@@H](C)O)[C@@H](C)O)[C@@H](C)CC)C(=O)N[C@@H](C)C(=O)N[C@@H](Cc1c[nH]c2ccccc12)C(=O)N[C@@H](CC(C)C)C(=O)N[C@H](C(=O)N[C@@H](CCC(=O)O)C(=O)N[C@@H](Cc1c[nH]cn1)C(=O)N[C@@H](CCCCN)C(=O)N[C@H](C(=O)N[C@H](C(=O)N[C@@H](CC(=O)O)C(=O)O)[C@@H](C)O)[C@@H](C)CC)[C@@H](C)CC) [Compound 2] | 0.13 nM | 0.25 nM
H-H[Aib]EGTFSSELATILDK([AEEA-KEK-γGlu-C18 diacid])QAARDFIAWLIEHKITD-OH [Compound 49] | 0.27 nM | 0.044 nM
H-H[Aib]EGSFTSEK([AEEA-KEK-γGlu-C20 diacid])ATILDEQAARDFIAWLIEHKITD-OH [Compound 53] | 0.076 nM | 0.24 nM
H-H[Aib]EGSFTSELATILDK([AEEA-KEK-γGlu-C20 diacid])KAARDFIAWLIEHKITD-OH [Compound 59] | 0.088 nM | 0.11 nM
H-H[Aib]EGTFTSELATILDK([AEEA-KEK-γGlu-C20 diacid])QAARDFIAWLIQHKITD-OH [Compound 52] | 0.02 nM | 0.075 nM
H-H[Aib]EGSFTSEK([AEEA-AEEA-KEK-γGlu-C20 diacid])ATILDEQAARDFIAWLIEHKITD-OH [Compound 55] | 0.11 nM | 0.78 nM
H-H[Aib]EGTFTSELATILDK([AEEA-KEK-γGlu-C20 diacid])QAARDFIAWLIEHKITD-OH [Compound 56] | 0.033 nM | 0.076 nM
H-H[Aib]EGTFSSELATILDK([γGlu-C18 diacid])EAARDFIAWLIEHKITD-OH (SMILES CC[C@H](C)[C@H](NC(=O)[C@H](Cc1ccccc1)NC(=O)[C@H](CC(=O)O)NC(=O)[C@H](CCCNC(=N)N)NC(=O)[C@H](C)NC(=O)[C@H](C)NC(=O)[C@H](CCC(=O)O)NC(=O)[C@H](CCCCNC(=O)CC[C@H](NC(=O)CCCCCCCCCCCCCCCCC(=O)O)C(=O)O)NC(=O)[C@H](CC(=O)O)NC(=O)[C@H](CC(C)C)NC(=O)[C@@H](NC(=O)[C@@H](NC(=O)[C@H](C)NC(=O)[C@H](CC(C)C)NC(=O)[C@H](CCC(=O)O)NC(=O)[C@H](CO)NC(=O)[C@H](CO)NC(=O)[C@H](Cc1ccccc1)NC(=O)[C@@H](NC(=O)CNC(=O)[C@H](CCC(=O)O)NC(=O)C(C)(C)NC(=O)[C@@H](N)Cc1c[nH]cn1)[C@@H](C)O)[C@@H](C)O)[C@@H](C)CC)C(=O)N[C@@H](C)C(=O)N[C@@H](Cc1c[nH]c2ccccc12)C(=O)N[C@@H](CC(C)C)C(=O)N[C@H](C(=O)N[C@@H](CCC(=O)O)C(=O)N[C@@H](Cc1c[nH]cn1)C(=O)N[C@@H](CCCCN)C(=O)N[C@H](C(=O)N[C@H](C(=O)N[C@@H](CC(=O)O)C(=O)O)[C@@H](C)O)[C@@H](C)CC)[C@@H](C)CC) [Compound 1] | 0.63 nM | 0.35 nM
H-H[Aib]EGSFTSELATILDAK([AEEA-AEEA-KEK-γGlu-C20 diacid])AARDFIAWLIEHKITD-OH [Compound 63] | 0.31 nM | 0.17 nM
H-H[Aib]EGSFTSELATILEGK([AEEA-KEK-γGlu-C20 diacid])AARDFIAWLIEHKITD-OH [Compound 61] | 0.13 nM | 0.2 nM
H-H[Aib]EGTFSSELATILDK([AEEA-KEK-γGlu-C20 diacid])QAARDFIAWLIEHKITD-OH [Compound 50] | 0.31 nM | 0.056 nM
H-H[Aib]EGSFTSELATILDK([AEEA-KEK-γGlu-C20 diacid])QAARDFIAWLIEHKITD-OH [Compound 57] | 0.093 nM | 0.083 nM
H-H[Aib]EGTFTSELATILDEQAAK([AEEA-KEK-γGlu-C20 diacid])DFIAWLIEHKITD-OH [Compound 65] | 0.13 nM | 0.35 nM
H-H[Aib]EGTFSSELATILDK([AEEA-KEK-γGlu-C20 diacid])QAARDFIAWLIQHKITD-OH [Compound 48] | 0.47 nM | 0.054 nM
H-H[Aib]EGTFTSELATILDK([γGlu-C18 diacid])EAARDFIAWLIEHKITD-OH (SMILES CC[C@H](C)[C@H](NC(=O)[C@H](Cc1ccccc1)NC(=O)[C@H](CC(=O)O)NC(=O)[C@H](CCCNC(=N)N)NC(=O)[C@H](C)NC(=O)[C@H](C)NC(=O)[C@H](CCC(=O)O)NC(=O)[C@H](CCCCNC(=O)CC[C@H](NC(=O)CCCCCCCCCCCCCCCCC(=O)O)C(=O)O)NC(=O)[C@H](CC(=O)O)NC(=O)[C@H](CC(C)C)NC(=O)[C@@H](NC(=O)[C@@H](NC(=O)[C@H](C)NC(=O)[C@H](CC(C)C)NC(=O)[C@H](CCC(=O)O)NC(=O)[C@H](CO)NC(=O)[C@@H](NC(=O)[C@H](Cc1ccccc1)NC(=O)[C@@H](NC(=O)CNC(=O)[C@H](CCC(=O)O)NC(=O)C(C)(C)NC(=O)[C@@H](N)Cc1c[nH]cn1)[C@@H](C)O)[C@@H](C)O)[C@@H](C)O)[C@@H](C)CC)C(=O)N[C@@H](C)C(=O)N[C@@H](Cc1c[nH]c2ccccc12)C(=O)N[C@@H](CC(C)C)C(=O)N[C@H](C(=O)N[C@@H](CCC(=O)O)C(=O)N[C@@H](Cc1c[nH]cn1)C(=O)N[C@@H](CCCCN)C(=O)N[C@H](C(=O)N[C@H](C(=O)N[C@@H](CC(=O)O)C(=O)O)[C@@H](C)O)[C@@H](C)CC)[C@@H](C)CC) [Compound 3] | 0.042 nM | 0.33 nM
